Values quoted from earlier work in patent US20170240926A1, “METHODS FOR PRENYLATION OF PEPTIDES AND THEIR USE IN OVER-PRODUCTION OF FARNESENE AND GERANYLGERANYL TERPENES” (University of North Texas, priority 2016, published 2017).

Target: FTase (Rattus norvegicus, UniProt Q02293+Q04631)
Settings: 10 μM FPP, 0.4-10 μM dansylated peptide, 25-300 nM FTase, 50 mM HEPPSO pH 7.8, 25° C.

CFLS: peptide of the form dansyl-TKCxxx with C-terminal CFLS; SCAMPER
kfarn: 0.46 ± 0.05 s⁻¹
